Here are results for 6 molecules from patent US6548282B2, “Phytase and gene encoding said phytase” (priority 1996, dated 2003).

Data set [1] has as its system rice bran-derived phytase. The note with it: Agr. Biol. Chem., 53, 1475-1483; read-out: Michaelis constant (Km); cited from earlier work.
Data set [2] relates to Escherichia coli-derived phytase. The note with it: read-out: Michaelis constant (Km); cited from earlier work.
Data set [3] deals with Bacillus subtilis-derived phytase. The settings on record: read-out: Michaelis constant (Km); cited from earlier work.
Data set [4] relates to wheat bran-derived phytase. The note with it: Agr. Biol. Chem., 26, 794-803 (1962); read-out: Michaelis constant (Km); cited from earlier work.
Data set [5] concerns Aspergillus oryzae-derived phytase. The note with it: read-out: Michaelis constant (Km); cited from earlier work.
Data set [6] deals with Bacillus natto-derived phytase. The note with it: read-out: Michaelis constant (Km); cited from earlier work.
In data set [7] the test system is maize (Zea mays)-derived phytase. The settings on record: read-out: Michaelis constant (Km); cited from earlier work.
For data set [8], the system named is Aspergillus ficcum-derived phytase. The note with it: WO 91/05053; read-out: Michaelis constant (Km); cited from earlier work.
Substrate in data set [9]: O=P(O)(O)O[C@H]1[C@H](OP(=O)(O)O)[C@@H](OP(=O)(O)O)[C@H](OP(=O)(O)O)[C@@H](OP(=O)(O)O)[C@H]1OP(=O)(O)O
Briefly: Km of novel phytase from Aspergillus niger SK57 (standard assay, Lineweaver-Burk plot). The data set is classed as biochemical. The note with it: other: sodium phytate 0.00625 to 1.25 mM, pH 5.5, 37° C. Here is the method:
(§1) 0.5 ml of 0.2 M acetate buffer, pH 5.5 (sodium acetate) containing 2.5 mM sodium phytate (Sigma) is maintained at 37° C. for 5 minutes, and 0.5 ml of an enzyme solution is added to initiate the reaction. After maintained at 37° C. for 10 minutes, 2 ml of a stop solution of enzyme reaction (i.e., mixture of 1:1:2 10 mM ammonium molybdate, 5 N sulfuric acid and acetone) is added to stop the reaction, and 0.1 ml of 1 M citric acid is further added and mixed. The absorbance of this solution is determined at 380 nm on a spectrophotometer (Hitachi U-2000). One unit of phytase activity is defined as the amount of enzyme allowing to release 1 μmol inorganic phosphorus for 1 minute at pH 5.5 at 37° C.
(§2) The Km value of the novel phytase can be determined by the Lineweaver-Burk plot in which the activity of the novel phytase, as determined by the standard assay, is plotted at varying concentrations of the substrate.
(§3) (1) Km value: The activity was determined according to the standard assay where the substrate concentration was varied in the range of 0.00625 to 1.25 mM. The results were graphted out in Lineweave-Burk plot so that Km values were determined.

Substrate in data set [10]: O=P(O)(O)O[C@H]1[C@H](OP(=O)(O)O)[C@@H](OP(=O)(O)O)[C@H](OP(=O)(O)O)[C@@H](OP(=O)(O)O)[C@H]1OP(=O)(O)O
Nature of the data set: Km of novel phytase from transformant Aspergillus niger MH-PA1 (standard assay, Lineweaver-Burk plot). The data set is classed as biochemical. The settings on record: other: sodium phytate 0.00625 to 1.25 mM, pH 5.5, 37° C. Here is the method: as §1, §2, §3

Substrate in data set [11]: O=P(O)(O)O[C@H]1[C@H](OP(=O)(O)O)[C@@H](OP(=O)(O)O)[C@H](OP(=O)(O)O)[C@@H](OP(=O)(O)O)[C@H]1OP(=O)(O)O
Briefly: Km of novel phytase from transformant Aspergillus nidulans M-PA1 (standard assay, Lineweaver-Burk plot). The settings on record: other: sodium phytate 0.00625 to 1.25 mM, pH 5.5, 37° C. The data set is classed as biochemical. Here is the method:
as §1, §2, §3

Substrate in data set [12]: O=P(O)(O)O[C@H]1[C@H](OP(=O)(O)O)[C@@H](OP(=O)(O)O)[C@H](OP(=O)(O)O)[C@@H](OP(=O)(O)O)[C@H]1OP(=O)(O)O
Nature of the data set: Km of novel phytase from transformant Aspergillus oryzae MO-PG3 (standard assay, Lineweaver-Burk plot). The data set is classed as biochemical. The note with it: other: sodium phytate 0.00625 to 1.25 mM, pH 5.5, 37° C. Here is the method: as §1, §2, §3

Data set [13] can be described thus: Specific activity of purified phytase, standard assay. The format is biochemical. The settings on record: after purification; pH 5.5, 37° C. How it is done: as §1
Ten g of the crude phytase powder obtained in Example 6-2 was dissolved in 50 ml of acetate buffer A [50 mM acetic acid/50 mM sodium acetate (pH 5.5)] and then desalted through an Ultrafilter (cut off molecular weight 10,000; Sartrius). The resulting enzyme solution was applied to a DIAION HPA-75 (Mitsubishi Corporation) column (5.6 cm×30 cm) previously equilibrated with acetate buffer A. After washed with acetate buffer A, novel phytase was eluted with acetate buffer B [50 mM acetic acid/50 mM sodium acetate (pH 4.8)] containing 0.3 M NaCl. […]

Data set [14] is described as follows: Substrate specificity, standard assay. The format is biochemical. Here is the method: as §1
(7) Substrate specificity: The activity was determined by the standard assay method wherein the concentration of substrates was adjusted at 1 mM and 10 mM.

By Km is commonly meant the substrate concentration at which the rate is half of its maximum. As for `O=P(O)(O)O[C@H]1[C@H](OP(=O)(O)O)[C@@H](OP(=O)(O)O)[C@H](OP(=O)(O)O)[C@@H](OP(=O)(O)O)[C@H]1OP(=O)(O)O` [phytic acid], the Km in [1] is 170 µM; in data set [2] it was 130 µM; in [3], 150 µM; in [4], 570 µM; in data set [5] it was 330 µM; in data set [6], 500 µM. The results for the Michaelis constant (Km) in data set [7] and in [8] were 117 µM and 250 µM, respectively.

B1: novel phytase derived from Aspergillus niger SK57, SEQ ID NO:1 (Aspergillus niger CBS 513.88) (protein)
chain: SRNQSTCDTVDQGYQCFSETSHLWGQYAPFFSLANKSAISPDVPAGCHVTFAQVLSRHGARYPTDSKGKKYSALIEEIQQNATTFEGKYAFLKTYNYSLGADDLTPFGEQELVNSGVKFYQRYESLTRNIVPFIRSSGSSRVIASGNKFIEGFQSTKLKDPRAQPGQSSPKIDVVISEASTSNNTLDPGTCTVFEDSELADDIEANFTATFVPSIRQRLENDLSGVSLTDTEVTYLMDMCSFDTISTSTVDTKLSPFCDLFTHEEWINYDYLQSLNKYYGHGAGNPLGPTQGVGYANELIARLTHSPVHDDTSSNHTLDSNPATFPLNSTLYADFSHDNGIISILFALGLYNGTKPLSSTTAENITQTDGFSSAWTVPFASRMYVEMMQCQSEQEPLVRVLVNDRVVPLHGCPVDALGRCTRDSFVKGLSFARSGGDWGECFA
With B1, the Km in data set [9] was determined as 13 µM.

B2: novel phytase (SK57 gene, pANPHY1) derived from Aspergillus niger MH-PA1 (Aspergillus niger CBS 513.88) (protein)
chain: B1 chain
notes: secreted, mature, purified
As for B2, the Michaelis constant (Km) in data set [10] was found to be 30 µM.

B3: novel phytase (SK57 gene, pANPHY1) derived from Aspergillus nidulans M-PA1 (Aspergillus niger CBS 513.88) (protein)
chain: B1 chain
notes: secreted, mature, purified, glycosylated
For B3, the Km in data set [11] stood at 20 µM.

B4: novel phytase (SK57 gene, pANPHY1) derived from Aspergillus oryzae MO-PG3 (Aspergillus niger CBS 513.88) (protein)
chain: B1 chain
notes: as for B3
Take B4: in data set [12], the Km stood at 28 µM.

B5: novel phytase from Aspergillus niger SK57: Phytase purified from wheat bran culture of Aspergillus niger SK57 (FERM BP-5473); amino acid sequence SEQ ID NO:1 (protein)
chain: B1 chain
B5: the specific activity in [13] turned out to be 158 U/mg. Moreover, the “Relative activity (100%)” value came to 1.6% in [14] (substrate ATP 1 mM); 1.2% in data set [14] (substrate ATP 10 mM); 0.45% in data set [14] (substrate D-glucose-6-phosphate 1 mM); 4.2% in data set [14] (substrate D-glucose-6-phosphate 10 mM); 0.71% in [14] (substrate D-myo-inositol 1,4,5-tris-phosphate 1 mM); 5.8% in data set [14] (substrate D-myo-inositol 1,4,5-tris-phosphate 10 mM). Moreover, the “Relative activity (100%)” value in data set [14] (substrate fructose-6-phosphate 1 mM) amounted to 0.15%; in data set [14] (substrate fructose-6-phosphate 10 mM), 0.93%; in data set [14] (substrate glycerophosphoric acid 1 mM), 0.11%; in [14] (substrate glycerophosphoric acid 10 mM) it was 0.96%; in [14] (substrate p-nitrophenyl phosphate 1 mM), 1.9%; in data set [14] (substrate p-nitrophenyl phosphate 10 mM) it was 10%. For the same molecule, in [14] (substrate phytic acid 1 mM), the “Relative activity (100%)” value stood at 100%. In addition, the “substrate specificity (in words)” value in [14] (substrates of Table 1 at 1 mM and 10 mM) is recorded as “acted with low specificity on the substrates shown in Table 1, but it had less activity on substrates other than phytic acid”.
